Experimental findings from publication PMC3146519, “Highly Efficient Production of Soluble Proteins from Insoluble Inclusion Bodies by a Two-Step-Denaturing and Refolding Method” are described below.

The target in this data set is T1, NRSF/REST DBD (refolded by 2DR) (UniProt Q13127 159-412).
T1 sequence: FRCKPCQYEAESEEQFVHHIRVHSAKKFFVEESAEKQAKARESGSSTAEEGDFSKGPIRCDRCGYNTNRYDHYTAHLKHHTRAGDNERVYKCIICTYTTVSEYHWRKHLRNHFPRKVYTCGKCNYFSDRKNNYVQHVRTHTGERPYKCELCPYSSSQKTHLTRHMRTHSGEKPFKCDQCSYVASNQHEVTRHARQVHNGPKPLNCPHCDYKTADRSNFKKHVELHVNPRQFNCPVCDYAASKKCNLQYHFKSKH
The experiment in a line: EMSA; 0.1 mM ZnCl2; DBD:DNA 0:1 to 3:1, 75 pmol DNA in 20 ul; 10 mM Tris pH 7.0, 0.1 mM ZnCl2, 20 ul, 30 min at room temperature; 5% native PAGE, EtBr stain. The note with it: protein: recombinant; label: none (EtBr stain); blunt.

B1: NRSE/RE1 dsDNA (dsDNA)
DNA 1: TTCAGCACCACGGACAGCGCC
DNA 2: GGCGCTGTCCGTGGTGCTGAA
Turning to B1, the binding result is “binds”.
